In doi:10.1101/803361:

Biological target: Fluorescein-labelled Hsf1 peptide with the Hsc70 binding site in the TAD, residues 461-471 (human) (UniProt Q00613)
Assay: fluorescence polarisation

Sequence of Fluorescein-labelled Hsf1 peptide with the Hsc70 binding site in the TAD, residues 461-471 (human) (Q00613 whole entry, looked up, the tested form may be a part): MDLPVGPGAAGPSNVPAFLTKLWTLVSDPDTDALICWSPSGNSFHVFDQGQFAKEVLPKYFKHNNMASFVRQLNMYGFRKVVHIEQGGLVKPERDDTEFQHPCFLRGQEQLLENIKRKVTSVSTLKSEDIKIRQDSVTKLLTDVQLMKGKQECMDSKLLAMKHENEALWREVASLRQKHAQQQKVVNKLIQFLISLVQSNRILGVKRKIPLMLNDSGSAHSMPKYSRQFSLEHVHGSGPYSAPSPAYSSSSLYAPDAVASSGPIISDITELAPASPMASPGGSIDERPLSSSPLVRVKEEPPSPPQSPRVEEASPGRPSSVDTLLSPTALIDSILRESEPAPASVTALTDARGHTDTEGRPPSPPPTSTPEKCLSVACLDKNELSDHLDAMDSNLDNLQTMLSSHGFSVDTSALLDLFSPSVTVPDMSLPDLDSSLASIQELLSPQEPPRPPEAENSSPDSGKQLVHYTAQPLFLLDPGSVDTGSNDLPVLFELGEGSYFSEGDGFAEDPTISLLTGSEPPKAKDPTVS
Sequence of Human Hsc70 (HSPA8), wild type (P11142 whole entry): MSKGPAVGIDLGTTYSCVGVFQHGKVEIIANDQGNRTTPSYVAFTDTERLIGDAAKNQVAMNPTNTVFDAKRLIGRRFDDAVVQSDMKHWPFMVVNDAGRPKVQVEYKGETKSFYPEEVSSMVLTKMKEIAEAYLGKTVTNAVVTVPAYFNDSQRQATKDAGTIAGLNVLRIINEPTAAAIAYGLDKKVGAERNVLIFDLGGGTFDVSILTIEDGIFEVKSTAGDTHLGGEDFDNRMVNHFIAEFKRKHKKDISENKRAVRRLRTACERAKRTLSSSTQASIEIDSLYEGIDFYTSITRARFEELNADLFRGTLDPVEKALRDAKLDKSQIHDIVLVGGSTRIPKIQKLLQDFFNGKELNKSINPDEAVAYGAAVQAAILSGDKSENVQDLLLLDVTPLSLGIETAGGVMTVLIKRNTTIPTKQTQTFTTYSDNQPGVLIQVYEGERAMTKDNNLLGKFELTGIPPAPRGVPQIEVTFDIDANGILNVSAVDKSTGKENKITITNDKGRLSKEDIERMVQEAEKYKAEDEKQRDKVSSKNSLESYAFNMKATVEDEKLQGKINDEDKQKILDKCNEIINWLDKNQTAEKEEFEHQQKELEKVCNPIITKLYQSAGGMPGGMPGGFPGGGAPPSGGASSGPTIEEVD

Substance: Human Hsc70 (HSPA8), wild type (from UniProt P11142 1-646) (natural protein)
- Kd: 5 to 30 µM
